Data on 94 variants can be found in the supplement of paper PMC10567573.

The chains are these.
B1: ZNF263 (parent)
chain: KPYKCTLCGENFSHRSNLIRHQRI
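Further: lentivirally expressed fusions sorted by FACS into six bins by GFP to DsRed ratio, PSI derived from sequencing read proportions per bin multiplied by bin number.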

In the data set the parent is B1. Put plainly: protein stability index of a GFP-peptide fusion (GPS, HEK-293T) (PSI 1-6); higher = more stable. The conditions noted are these: c terminus: a fixed tail appended.
As to KEYKCTLCGENFSHRSNLIRHQRI [P2E], the protein stability index stood at 2.67.

With KQYKCTLCGENFSHRSNLIRHQRI [P2Q], the protein stability index worked out at 2.09.

For KLYKCTLCGENFSHRSNLIRHQRI [P2L], the protein stability index stood at 2.53.

In the case of KWYKCTLCGENFSHRSNLIRHQRI [P2W], the protein stability index came out at 2.05. To KRYKCTLCGENFSHRSNLIRHQRI [P2R] belongs 3.12; to KPYKCTLCGENFPHRSNLIRHQRI [S13P], 2.45; to KPYKCTLCGENFLHRSNLIRHQRI [S13L], 2.32. To KPYKCTLCGENFMHRSNLIRHQRI [S13M] belongs 2.52.

Take KPYKCTLCGENFDHRSNLIRHQRI [S13D]: the protein stability index came out at 2.12. For the variant KPYKCTLCGENFYHRSNLIRHQRI [S13Y], the protein stability index was 2.89. With KPYKCTLCGENFEHRSNLIRHQRI [S13E], the protein stability index came to 2.52.

With KPYKCTLCGENFFHRSNLIRHQRI [S13F], the protein stability index is 2.26.

Consider KPYKCTLCGENFWHRSNLIRHQRI [S13W], for which the protein stability index amounted to 2.53. Under KPYKCTLCGENFSHRSVLIRHQRI [N17V] stands 1.7; under KPYKCTLCGENFSHRSHLIRHQRI [N17H], 3.64.

Regarding KPYKCTLCGENFSHRSWLIRHQRI [N17W], the protein stability index was 2.07. Consider KPYKCTLCGENFSHRSPLIRHQRI [N17P], for which the protein stability index is 1.87. Take KPYKCTLCGENFSHRSRLIRHQRI [N17R]: the protein stability index worked out at 2.64. Consider KPYKCTLCGENFSHRSTLIRHQRI [N17T], for which the protein stability index worked out at 2.65. Under KPYKCTLCGENFSHRSLLIRHQRI [N17L] stands 2.77; under KPYKCTLCFENFSHRSNLIRHQRI [G9F], 2.43.

For KPYKCTLCIENFSHRSNLIRHQRI [G9I], the protein stability index worked out at 4. To KPYKCTLCWENFSHRSNLIRHQRI [G9W] belongs 1.62; to KPYKCTLCQENFSHRSNLIRHQRI [G9Q], 2.79; to KPYKCTLCGENFSHRSNRIRHQRI [L18R], 2.81. To KPYKCTLCGENFSHRSNWIRHQRI [L18W] belongs 2.19; to KPYKCTLCGENFSHRSNQIRHQRI [L18Q], 2.42; to KPYKCTLCGENFSHRSNGIRHQRI [L18G], 1.98.

Take KPYKCTLCGENFSHRSNTIRHQRI [L18T]: the protein stability index amounted to 1.72. Under KPYKCTLCGENFSHRSNYIRHQRI [L18Y] stands 2.38.

KPYKCTLCGENFSHRSNSIRHQRI [L18S]: the protein stability index was found to be 1.77. Under KPYKCTLCGENFSHRSNIIRHQRI [L18I] stands 1.95; under KPYKCTLCGENFSHRSNNIRHQRI [L18N], 2.21.

As to WPYKCTLCGENFSHRSNLIRHQRI [K1W], the protein stability index stood at 1.92.

With EPYKCTLCGENFSHRSNLIRHQRI [K1E], the protein stability index stood at 3.25. To HPYKCTLCGENFSHRSNLIRHQRI [K1H] belongs 2.47; to VPYKCTLCGENFSHRSNLIRHQRI [K1V], 1.56; to MPYKCTLCGENFSHRSNLIRHQRI [K1M], 2.65.

For the variant DPYKCTLCGENFSHRSNLIRHQRI [K1D], the protein stability index came to 3.07. To GPYKCTLCGENFSHRSNLIRHQRI [K1G] belongs 2.27. Regarding RPYKCTLCGENFSHRSNLIRHQRI [K1R], the protein stability index amounted to 2.66. On to PPYKCTLCGENFSHRSNLIRHQRI [K1P], for which the protein stability index came out at 3.08. Under IPYKCTLCGENFSHRSNLIRHQRI [K1I] stands 2.16. Consider KPYKNTLCGENFSHRSNLIRHQRI [C5N], for which the protein stability index is 2.41. Under KPYKITLCGENFSHRSNLIRHQRI [C5I] stands 1.75; under KPYKPTLCGENFSHRSNLIRHQRI [C5P], 2.44; under KPYKTTLCGENFSHRSNLIRHQRI [C5T], 2.09.

In the case of KPYKATLCGENFSHRSNLIRHQRI [C5A], the protein stability index stood at 2.52. Under KPYKKTLCGENFSHRSNLIRHQRI [C5K] stands 2.44; under KPYKVTLCGENFSHRSNLIRHQRI [C5V], 2.06. Under KPYKCTLCGENWSHRSNLIRHQRI [F12W] stands 2.12; under KPYKCTLCGENHSHRSNLIRHQRI [F12H], 2.65. Under KPYKCTLCGENVSHRSNLIRHQRI [F12V] stands 3.52. As to KPYKCTLCGENGSHRSNLIRHQRI [F12G], the protein stability index came out at 1.8. To KPYKCTLCGENQSHRSNLIRHQRI [F12Q] belongs 2.18. To KPYKCTLCGENLSHRSNLIRHQRI [F12L] belongs 2.1. As to KPYKCTLCGENTSHRSNLIRHQRI [F12T], the protein stability index turned out to be 1.66. For the variant KPYKCTLCGENCSHRSNLIRHQRI [F12C], the protein stability index is 2.71. To KPYKCTLCGENSSHRSNLIRHQRI [F12S] belongs 1.99. Regarding KPYKCTLCGENNSHRSNLIRHQRI [F12N], the protein stability index was 1.96. To KPYKCTLCGENMSHRSNLIRHQRI [F12M] belongs 2.01; to KPYKCYLCGENFSHRSNLIRHQRI [T6Y], 1.98; to KPYKCGLCGENFSHRSNLIRHQRI [T6G], 2.67. Take KPYKCELCGENFSHRSNLIRHQRI [T6E]: the protein stability index is 2.9. For KPYKCILCGENFSHRSNLIRHQRI [T6I], the protein stability index is 2.38. To KPYKCLLCGENFSHRSNLIRHQRI [T6L] belongs 2.21; to KPYKCTLCGEDFSHRSNLIRHQRI [N11D], 2.23. Take KPYKCTLCGESFSHRSNLIRHQRI [N11S]: the protein stability index was determined as 2.8. On to KPYKCTLCGEGFSHRSNLIRHQRI [N11G], for which the protein stability index was determined as 2.52.

For the variant KPYKCTLCGEHFSHRSNLIRHQRI [N11H], the protein stability index was determined as 3.33. Consider KPYKCTLCGECFSHRSNLIRHQRI [N11C], for which the protein stability index turned out to be 3.11. On to KPYKCTLCGEVFSHRSNLIRHQRI [N11V], for which the protein stability index worked out at 2.83. With KPYKCTLCGENFSHRSNLRRHQRI [I19R], the protein stability index was found to be 2.9. To KPYKCTLCGENFSHRSNLLRHQRI [I19L] belongs 2.32; to KPYKCTLCGENFSHRSNLGRHQRI [I19G], 3.08. To KPYKCTLCGENFSHRSNLMRHQRI [I19M] belongs 2.62. Under KPYKCTLCGENFSHRSNLFRHQRI [I19F] stands 1.88; under KPYKCTLCGENFSHRSNLQRHQRI [I19Q], 2.44; under KPYKCTLCGENFSHRSNLPRHQRI [I19P], 2.11. Turning to KPYKCTLCGENFSHRDNLIRHQRI [S16D], the protein stability index came to 2.74. Under KPYKCTLCGENFSHRCNLIRHQRI [S16C] stands 2.41. Take KPYKCTLCGENFSHRPNLIRHQRI [S16P]: the protein stability index was 1.77. With KPYKCTLCGENFSHRNNLIRHQRI [S16N], the protein stability index worked out at 2.13. To KPYKCTLCGENFSHRENLIRHQRI [S16E] belongs 2.53; to KPYKCTLCGENFSHRWNLIRHQRI [S16W], 2.43; to KPYKCTLCGQNFSHRSNLIRHQRI [E10Q], 2.98. Under KPYKCTLCGVNFSHRSNLIRHQRI [E10V] stands 2.56; under KPYKCTLCGSNFSHRSNLIRHQRI [E10S], 2.61. Take KPYKCTLCGTNFSHRSNLIRHQRI [E10T]: the protein stability index is 2.06. In the case of KPYKCTLCGHNFSHRSNLIRHQRI [E10H], the protein stability index was 2.71. With KPYKCTLCGNNFSHRSNLIRHQRI [E10N], the protein stability index was 2.24. As to KPYKCTLCGKNFSHRSNLIRHQRI [E10K], the protein stability index amounted to 3.4. With KPYKCTLCGYNFSHRSNLIRHQRI [E10Y], the protein stability index was determined as 1.69. To KPYKCTLCGPNFSHRSNLIRHQRI [E10P] belongs 2.09.
